{
  "source": "paper PMC3726324",
  "about": "“Characterization of the PAS domain in the sensor-kinase BvgS: mechanical role in signal transmission” (BMC Microbiology, 2013)",
  "key": {"[1]": {"target": "recombinant PASBvg protein N2C2 (BvgS residues 573-714) (Bordetella pertussis) (UniProt P16575)", "assay": "SEC; size-exclusion chromatography of the purified recombinant proteins; data not shown"}, "[2]": {"target": "recombinant PASBvg protein N2C3 (BvgS residues 573-720) (Bordetella pertussis) (UniProt P16575)", "assay": "native MS; ESI-Q-TOF, positive ion mode, native conditions; purified N2C3 at 10 uM in 27 mM ammonium acetate"}, "[3]": {"target": "recombinant PASBvg protein N2C3 (BvgS residues 573-720) (Bordetella pertussis) (UniProt P16575)", "assay": "SEC; size-exclusion chromatography of the purified recombinant proteins; data not shown"}, "[4]": {"target": "recombinant PASBvg protein N3C2 (BvgS residues 581-714) (Bordetella pertussis) (UniProt P16575)", "assay": "SEC; size-exclusion chromatography of the purified recombinant proteins; data not shown"}, "[5]": {"target": "recombinant PASBvg protein N3C3 (BvgS residues 581-720) (Bordetella pertussis) (UniProt P16575)", "assay": "SEC; size-exclusion chromatography of the purified recombinant proteins; data not shown"}, "[6]": {"target": "the molecule itself", "assay": "not stated; oligomeric state of the purified or soluble N2C3 variants; method not named; not shown"}},
  "data": [
    {"molecule": "recombinant PASBvg protein N2C2 (BvgS residues 573-714) (from UniProt P16575 573-714) (domain or fragment)", "values": [
      {"measurement": "stoichiometry N", "setting": "[1]", "result": 2}
    ]},
    {"molecule": "recombinant PASBvg protein N2C3 (BvgS residues 573-720) (from UniProt P16575 573-720) (domain or fragment)", "values": [
      {"measurement": "stoichiometry N", "setting": "[2]", "result": 2},
      {"measurement": "stoichiometry N", "setting": "[3]", "result": 2}
    ]},
    {"molecule": "recombinant PASBvg protein N3C2 (BvgS residues 581-714) (from UniProt P16575 581-714) (domain or fragment)", "values": [
      {"measurement": "stoichiometry N", "setting": "[4]", "result": 2}
    ]},
    {"molecule": "recombinant PASBvg protein N3C3 (BvgS residues 581-720) (from UniProt P16575 581-720) (domain or fragment)", "values": [
      {"measurement": "stoichiometry N", "setting": "[5]", "result": 2}
    ]},
    {"molecule": "N2C3 Asn608Ala (BvgS residues 573-720, N608A) (domain or fragment, numbering from the initiation Met of full-length BvgS; source: E. coli BL21 (DE3), pASK-IBA35+, soluble fraction; produced in very low amounts) AERALNDQLEFMRVLIDGTPNPIYVRDKEGRMLLCADAYLDTFGVTADAVLGKTIPEANVVGDPALAREMHEFLLTRVAAEREPRFEDRDVTLHGRTRHVYQWTIPYGDSLGELKGIIGGWIDITERAELLRELHDAKESADAANRAK", "values": [
      {"measurement": "stoichiometry N", "setting": "[6]", "result": 2}
    ]},
    {"molecule": "N2C3 Cys607Ala (BvgS residues 573-720, C607A) (domain or fragment, numbering from the initiation Met of full-length BvgS; source: E. coli BL21 (DE3), pASK-IBA35+, purified) AERALNDQLEFMRVLIDGTPNPIYVRDKEGRMLLANDAYLDTFGVTADAVLGKTIPEANVVGDPALAREMHEFLLTRVAAEREPRFEDRDVTLHGRTRHVYQWTIPYGDSLGELKGIIGGWIDITERAELLRELHDAKESADAANRAK", "values": [
      {"measurement": "stoichiometry N", "setting": "[6]", "result": 2}
    ]},
    {"molecule": "N2C3 Tyr596Ala + Asn631Ala (BvgS residues 573-720, Y596A + N631A) (domain or fragment, numbering from the initiation Met of full-length BvgS; source: E. coli BL21 (DE3), pASK-IBA35+, purified) AERALNDQLEFMRVLIDGTPNPIAVRDKEGRMLLCNDAYLDTFGVTADAVLGKTIPEAAVVGDPALAREMHEFLLTRVAAEREPRFEDRDVTLHGRTRHVYQWTIPYGDSLGELKGIIGGWIDITERAELLRELHDAKESADAANRAK", "values": [
      {"measurement": "stoichiometry N", "setting": "[6]", "result": 2}
    ]},
    {"molecule": "N2C3 Arg670Ala (BvgS residues 573-720, R670A) (domain or fragment, numbering from the initiation Met of full-length BvgS; source: E. coli BL21 (DE3), pASK-IBA35+, purified) AERALNDQLEFMRVLIDGTPNPIYVRDKEGRMLLCNDAYLDTFGVTADAVLGKTIPEANVVGDPALAREMHEFLLTRVAAEREPRFEDRDVTLHGRTAHVYQWTIPYGDSLGELKGIIGGWIDITERAELLRELHDAKESADAANRAK", "values": [
      {"measurement": "stoichiometry N", "setting": "[6]", "result": 2}
    ]},
    {"molecule": "N2C3 His643Ala (BvgS residues 573-720, H643A) (domain or fragment, numbering from the initiation Met of full-length BvgS; source: E. coli BL21 (DE3), pASK-IBA35+, purified) AERALNDQLEFMRVLIDGTPNPIYVRDKEGRMLLCNDAYLDTFGVTADAVLGKTIPEANVVGDPALAREMAEFLLTRVAAEREPRFEDRDVTLHGRTRHVYQWTIPYGDSLGELKGIIGGWIDITERAELLRELHDAKESADAANRAK", "values": [
      {"measurement": "stoichiometry N", "setting": "[6]", "result": 2}
    ]},
    {"molecule": "N2C3 Asp695Ala (BvgS residues 573-720, D695A) (domain or fragment, numbering from the initiation Met of full-length BvgS; source: E. coli BL21 (DE3), pASK-IBA35+, purified) AERALNDQLEFMRVLIDGTPNPIYVRDKEGRMLLCNDAYLDTFGVTADAVLGKTIPEANVVGDPALAREMHEFLLTRVAAEREPRFEDRDVTLHGRTRHVYQWTIPYGDSLGELKGIIGGWIAITERAELLRELHDAKESADAANRAK", "values": [
      {"measurement": "stoichiometry N", "setting": "[6]", "result": 2}
    ]},
    {"molecule": "N2C3 Asn608Ser (BvgS residues 573-720, N608S) (domain or fragment, numbering from the initiation Met of full-length BvgS; source: E. coli BL21 (DE3), pASK-IBA35+, purified) AERALNDQLEFMRVLIDGTPNPIYVRDKEGRMLLCSDAYLDTFGVTADAVLGKTIPEANVVGDPALAREMHEFLLTRVAAEREPRFEDRDVTLHGRTRHVYQWTIPYGDSLGELKGIIGGWIDITERAELLRELHDAKESADAANRAK", "values": [
      {"measurement": "stoichiometry N", "setting": "[6]", "result": 2}
    ]}
  ]
}
